According to patent US20260176319A1 (KALLYOPE, published 2026):
Starred links: 1 amine or outer side, 2 acyl side, 3 side chain; linkers in the order of their positions; H or OH if unused. Non-standard residues stand in square brackets, D forms with d. *: point of attachment. Trp(7-Me) = Cc1cccc2c(C[C@H](N)C(=O)O)c[nH]c12; d(γGlu) = O=C(O)[C@@H](CCC(=O)[*:2])N[*:1]; C18 diacid = O=C(O)CCCCCCCCCCCCCCCCC(=O)*; Palmitoyl = CCCCCCCCCCCCCCCC(=O)*; 3Pal = N[C@@H](Cc1cccnc1)C(=O)O; Nle = CCCC[C@H](N)C(=O)O; AEEA = NCCOCCOCC(=O)O; Aib = CC(C)(N)C(=O)O; Sar = CNCC(=O)O

B1: Peptide 26 (peptide)
peptide: Palmitoyl-[d(γGlu)]GNHWAV[dA]HL[Nle]-NH2
SMILES: CCCCCCCCCCCCCCCC(=O)N[C@H](CCC(=O)NCC(=O)N[C@@H](CC(N)=O)C(=O)N[C@@H](Cc1c[nH]cn1)C(=O)N[C@@H](Cc1c[nH]c2ccccc12)C(=O)N[C@@H](C)C(=O)N[C@H](C(=O)N[C@H](C)C(=O)N[C@@H](Cc1c[nH]cn1)C(=O)N[C@@H](CC(C)C)C(=O)N[C@@H](CCCC)C(N)=O)C(C)C)C(=O)O
B2: Peptide 23 (peptide)
peptide: Palmitoyl-[d(γGlu)][AEEA][AEEA]GNH[Trp(7-Me)]AV[Aib][3Pal]L[Nle][Sar]-NH2
SMILES: CCCCCCCCCCCCCCCC(=O)N[C@H](CCC(=O)NCCOCCOCC(=O)NCCOCCOCC(=O)NCC(=O)N[C@@H](CC(N)=O)C(=O)N[C@@H](Cc1c[nH]cn1)C(=O)N[C@@H](Cc1c[nH]c2c(C)cccc12)C(=O)N[C@@H](C)C(=O)N[C@H](C(=O)NC(C)(C)C(=O)N[C@@H](Cc1cccnc1)C(=O)N[C@@H](CC(C)C)C(=O)N[C@@H](CCCC)C(=O)N(C)CC(N)=O)C(C)C)C(=O)O
B3: Peptide 21 (peptide)
peptide: Palmitoyl-[d(γGlu)]GNHWAV[Aib]HL[Nle]-NH2
SMILES: CCCCCCCCCCCCCCCC(=O)N[C@H](CCC(=O)NCC(=O)N[C@@H](CC(N)=O)C(=O)N[C@@H](Cc1c[nH]cn1)C(=O)N[C@@H](Cc1c[nH]c2ccccc12)C(=O)N[C@@H](C)C(=O)N[C@H](C(=O)NC(C)(C)C(=O)N[C@@H](Cc1c[nH]cn1)C(=O)N[C@@H](CC(C)C)C(=O)N[C@@H](CCCC)C(N)=O)C(C)C)C(=O)O
B4: Peptide 22 (peptide)
peptide: Palmitoyl-[d(γGlu)][AEEA][AEEA]GNH[Trp(7-Me)]AV[Aib]HL[Nle]-NH2
SMILES: CCCCCCCCCCCCCCCC(=O)N[C@H](CCC(=O)NCCOCCOCC(=O)NCCOCCOCC(=O)NCC(=O)N[C@@H](CC(N)=O)C(=O)N[C@@H](Cc1c[nH]cn1)C(=O)N[C@@H](Cc1c[nH]c2c(C)cccc12)C(=O)N[C@@H](C)C(=O)N[C@H](C(=O)NC(C)(C)C(=O)N[C@@H](Cc1c[nH]cn1)C(=O)N[C@@H](CC(C)C)C(=O)N[C@@H](CCCC)C(N)=O)C(C)C)C(=O)O
B5: Peptide 25 (peptide)
peptide: GNHWAVXHLX
modifications: not fully specified; Ac-Gly-Asn-His-Trp-Ala-Val-D-Ala-His-Leu-Nle-H2N(CH2)3NH2-OEG-OEG-(α-Palmitoyl-D-γGlu)
B6: Peptide 46 (peptide)
peptide: {C18 diacid}-[dE][AEEA][AEEA]GNH[Trp(7-Me)]AV[dA]HL[Nle]-NH2
SMILES: CCCC[C@H](NC(=O)[C@H](CC(C)C)NC(=O)[C@H](Cc1c[nH]cn1)NC(=O)[C@@H](C)NC(=O)[C@@H](NC(=O)[C@H](C)NC(=O)[C@H](Cc1c[nH]c2c(C)cccc12)NC(=O)[C@H](Cc1c[nH]cn1)NC(=O)[C@H](CC(N)=O)NC(=O)CNC(=O)COCCOCCNC(=O)COCCOCCNC(=O)[C@@H](CCC(=O)O)NC(=O)CCCCCCCCCCCCCCCCC(=O)O)C(C)C)C(N)=O
B7: Peptide 24 (peptide)
peptide: Palmitoyl-[d(γGlu)][AEEA][AEEA]GEHWAV[Aib]HL[Nle]-NH2
SMILES: CCCCCCCCCCCCCCCC(=O)N[C@H](CCC(=O)NCCOCCOCC(=O)NCCOCCOCC(=O)NCC(=O)N[C@@H](CCC(=O)O)C(=O)N[C@@H](Cc1c[nH]cn1)C(=O)N[C@@H](Cc1c[nH]c2ccccc12)C(=O)N[C@@H](C)C(=O)N[C@H](C(=O)NC(C)(C)C(=O)N[C@@H](Cc1c[nH]cn1)C(=O)N[C@@H](CC(C)C)C(=O)N[C@@H](CCCC)C(N)=O)C(C)C)C(=O)O

These binders were tested against human GRP receptor (human, UniProt P30550 1-384) (assay: cell-based or functional assay).
Sequence of human GRP receptor (P30550 whole entry): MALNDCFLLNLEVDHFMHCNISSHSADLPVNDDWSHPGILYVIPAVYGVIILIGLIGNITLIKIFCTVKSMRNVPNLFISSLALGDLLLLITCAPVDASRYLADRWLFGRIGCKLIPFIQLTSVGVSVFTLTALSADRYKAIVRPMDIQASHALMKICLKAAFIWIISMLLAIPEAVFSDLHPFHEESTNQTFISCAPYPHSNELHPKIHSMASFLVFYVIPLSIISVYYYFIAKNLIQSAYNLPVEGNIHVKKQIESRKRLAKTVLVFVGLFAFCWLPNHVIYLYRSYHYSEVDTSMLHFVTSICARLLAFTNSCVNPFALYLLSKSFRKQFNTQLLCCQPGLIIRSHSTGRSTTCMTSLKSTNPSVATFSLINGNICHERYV

| hIP1 GRPR EC50 [nM] | Binder |
| --- | --- |
| 1.8 | B1 |
| 1090 | B2 |
| 120 | B3 |
| 10.3 | B4 |
| 10000 | B5 |
| 9.9 | B6 |
| 183 | B7 |
